B1: CPEB3 Ribozyme (parent)
chain: GGGGGCCACAGCAGAAGCGUUCACGUCGCGGCCCCUGUCAGAUUCUGGUGAAUCUGCGAAUUCUGCUGU

Variants of: B1
Assay: self-cleavage, relative activity (ratio to wild type); higher = more cleavage; co-transcriptional

Q: For GGGGGCCACAGCAGAAGCGUUCACGUCGCGGCCCCUGUCAGGUUCUGGUGAAUCUGCGAUUUCUGCUGU [A42G A60U], which self-cleavage is on record?
A: 0.329

Q: For GGGGGCCACAGCAGAAGCGUUCACGUCGCGGCCCCUGUCAGGUUCUGGUGAAUCUGCGACUUCUGCUGU [A42G A60C], which self-cleavage is on record?
A: 0.405

Q: With GGGGGCCACAGCAGAAGCGUUCACGUCGCGGCCCCUGUCAUAUUCUGGUGAAUCAGCGAAUUCUGCUGU [G41U U55A] as the variant, how does the self-cleavage read?
A: 0.551

Q: With GGGGGCCACAGCAGAAGCGUUCACGUCGCGGCCCCUGUCAUAUUCUGGUGAAUCCGCGAAUUCUGCUGU [G41U U55C] as the variant, how does the self-cleavage read?
A: 0.34

Q: For GGGGGCCACAGCAGAAGCGUUCACGUCGCGGCCCCUGUCAUAUUCUGGUGCAUCUGCGAAUUCUGCUGU [G41U A51C], which self-cleavage is on record?
A: 0.588

Q: With GGGGGCCACAGCAGAAGCGUUCACGUCGCGGCCCCUGUCAGCUUCUGGUGAAUCUACGAAUUCUGCUGU [A42C G56A] as the variant, how does the self-cleavage read?
A: 0.812

Q: Which self-cleavage does the source give for GGGGGCCACAGCAGAAGCGUUCACGUCGCGGCCCCUGUCAUAUUCUGGUAAAUCUGCGAAUUCUGCUGU [G41U G50A] here?
A: 0.704

Q: With GGGGGCCACAGCAGAAGCGUUCACGUCGCGGCCCCUGUCAUAUUCUGGUUAAUCUGCGAAUUCUGCUGU [G41U G50U] as the variant, how does the self-cleavage read?
A: 0.845

Q: Which self-cleavage does the source give for GGGGGCCACAGCAGAAGCGUUCACGUCGCGGCCCCUGUCAUGUUCUGGUGAAUCUGCGAAUUCUGCUGU [G41U A42G] here?
A: 0.777

Q: Which self-cleavage does the source give for GGGGGCCACAGCAGAAGCGUUCACGUCGCGGCCCCUGUCAUUUUCUGGUGAAUCUGCGAAUUCUGCUGU [G41U A42U] here?
A: 0.862

Q: For GGGGGCCACAGCAGAAGCGUUCACGUCGCGGCCCCUGUCAUCUUCUGGUGAAUCUGCGAAUUCUGCUGU [G41U A42C], which self-cleavage is on record?
A: 0.389

Q: With GGGGGCCACAGCAGAAGCGUUCACGUCGCGGCCCCUGUCAUAUUCUGGUGAAUCUGCGAAUGCUGCUGU [G41U U62G] as the variant, how does the self-cleavage read?
A: 0.391

Q: With GGGGGCCACAGCAGAAGCGUUCACGUCGCGGCCCCUGUCAGCUUCUGGUGAAUCUGCGAAUUCUGAUGU [A42C C66A] as the variant, how does the self-cleavage read?
A: 0.57

Q: Which self-cleavage does the source give for GGGGGCCACAGCAGAAGCGUUCACGUCGCGGCCCCUGUCAUAUUCUGGUGAAUCUGCGAAUUCUGUUGU [G41U C66U] here?
A: 0.75

Q: For GGGGGCCACAGCAGAAGCGUUCACGUCGCGGCCCCUGUCAUAUCCUGGUGAAUCUGCGAAUUCUGCUGU [G41U U44C], which self-cleavage is on record?
A: 0.366

Q: For GGGGGCCACAGCAGAAGCGUUCACGUCGCGGCCCCUGUCAGGUUCUGGUGAAUAUGCGAAUUCUGCUGU [A42G C54A], which self-cleavage is on record?
A: 0.708

Q: For GGGGGCCACAGCAGAAGCGUUCACGUCGCGGCCCCUGUCAGGUUCUGGUGAAUGUGCGAAUUCUGCUGU [A42G C54G], which self-cleavage is on record?
A: 0.71

Q: With GGGGGCCACAGCAGAAGCGUUCACGUCGCGGCCCCUGUCAGCUUCUGUUGAAUCUGCGAAUUCUGCUGU [A42C G48U] as the variant, how does the self-cleavage read?
A: 0.988

Q: For GGGGGCCACAGCAGAAGCGUUCACGUCGCGGCCCCUGUCAGCUUCUGCUGAAUCUGCGAAUUCUGCUGU [A42C G48C], which self-cleavage is on record?
A: 0.851

Q: For GGGGGCCACAGCAGAAGCGUUCACGUCGCGGCCCCUGUCAGCUUCUGAUGAAUCUGCGAAUUCUGCUGU [A42C G48A], which self-cleavage is on record?
A: 0.965

Q: With GGGGGCCACAGCAGAAGCGUUCACGUCGCGGCCCCUGUCAUAUUCUGGUGAAUCUGCGACUUCUGCUGU [G41U A60C] as the variant, how does the self-cleavage read?
A: 0.414

Q: With GGGGGCCACAGCAGAAGCGUUCACGUCGCGGCCCCUGUCAGCUUCUGGUGAAUCUGCGAGUUCUGCUGU [A42C A60G] as the variant, how does the self-cleavage read?
A: 0.771

Q: For GGGGGCCACAGCAGAAGCGUUCACGUCGCGGCCCCUGUCAGCUUCUGGUGAAUCUGCGACUUCUGCUGU [A42C A60C], which self-cleavage is on record?
A: 0.503

Q: Which self-cleavage does the source give for GGGGGCCACAGCAGAAGCGUUCACGUCGCGGCCCCUGUCACAUUCUGGUGAAUCUGCGAAUUCUGCUGA [G41C U69A] here?
A: 0.932

Q: With GGGGGCCACAGCAGAAGCGUUCACGUCGCGGCCCCUGUCAGCUUCUGGUGAAUCUGCGAAUUCCGCUGU [A42C U64C] as the variant, how does the self-cleavage read?
A: 0.637

Q: Which self-cleavage does the source give for GGGGGCCACAGCAGAAGCGUUCACGUCGCGGCCCCUGUCAGCUUCUGGUGAAUCUGCGAAUUCUCCUGU [A42C G65C] here?
A: 0.474

Q: With GGGGGCCACAGCAGAAGCGUUCACGUCGCGGCCCCUGUCAGCUUCUGGUGAAUCUGCGAAUUCUUCUGU [A42C G65U] as the variant, how does the self-cleavage read?
A: 0.574

Q: With GGGGGCCACAGCAGAAGCGUUCACGUCGCGGCCCCUGUCAUAUUCUGGUGAAUCUCCGAAUUCUGCUGU [G41U G56C] as the variant, how does the self-cleavage read?
A: 0.357

Q: With GGGGGCCACAGCAGAAGCGUUCACGUCGCGGCCCCUGUCAUAUUCUGGUGAAUCUUCGAAUUCUGCUGU [G41U G56U] as the variant, how does the self-cleavage read?
A: 0.343

Q: With GGGGGCCACAGCAGAAGCGUUCACGUCGCGGCCCCUGUCAUAUUCUGAUGAAUCUGCGAAUUCUGCUGU [G41U G48A] as the variant, how does the self-cleavage read?
A: 0.998

Q: For GGGGGCCACAGCAGAAGCGUUCACGUCGCGGCCCCUGUCAGCUUCUGGCGAAUCUGCGAAUUCUGCUGU [A42C U49C], which self-cleavage is on record?
A: 0.892

Q: Which self-cleavage does the source give for GGGGGCCACAGCAGAAGCGUUCACGUCGCGGCCCCUGUCAGGUUCUGGUGAAUCUUCGAAUUCUGCUGU [A42G G56U] here?
A: 0.567

Q: For GGGGGCCACAGCAGAAGCGUUCACGUCGCGGCCCCUGUCAGCUUCUGGUGAAUAUGCGAAUUCUGCUGU [A42C C54A], which self-cleavage is on record?
A: 0.707

Q: With GGGGGCCACAGCAGAAGCGUUCACGUCGCGGCCCCUGUCAGCUUCUGGUGAAUUUGCGAAUUCUGCUGU [A42C C54U] as the variant, how does the self-cleavage read?
A: 0.822

Q: With GGGGGCCACAGCAGAAGCGUUCACGUCGCGGCCCCUGUCAGCUUCUCGUGAAUCUGCGAAUUCUGCUGU [A42C G47C] as the variant, how does the self-cleavage read?
A: 0.977

Q: For GGGGGCCACAGCAGAAGCGUUCACGUCGCGGCCCCUGUCAGCUUCUUGUGAAUCUGCGAAUUCUGCUGU [A42C G47U], which self-cleavage is on record?
A: 0.958

Q: Which self-cleavage does the source give for GGGGGCCACAGCAGAAGCGUUCACGUCGCGGCCCCUGUCAUAUUCUGGUGAAUCUGCGAAUUGUGCUGU [G41U C63G] here?
A: 0.43

Q: For GGGGGCCACAGCAGAAGCGUUCACGUCGCGGCCCCUGUCAUAUUCUGGUGAAUCUGCGAAUUAUGCUGU [G41U C63A], which self-cleavage is on record?
A: 0.37

Q: With GGGGGCCACAGCAGAAGCGUUCACGUCGCGGCCCCUGUCAUAUUCUGGUGAAUCUGCGAAUUCUGCUGU [G41U] as the variant, how does the self-cleavage read?
A: 0.928
